# Assay results published in PMC6294562.
# Target: thrombin (alpha-thrombin) (UniProt P00734;P00734 328-363;364-622)
# Assay: X-ray crystallography
binder,measurement,value
CGCCTAGGTTGGGTAGGGTGGTGGCG (structured_DNA) [NU172 (ARC2172)],binding result,binds
